Source: patent CN116535503A (KANGYUAN BOCHUANG BIOLOGICAL TECH BEIJING CO LTD, dated 2023)

T1: GDF15-HIS(百普赛斯，CAT#:GD5-H5149) (human, UniProt Q99988 197-308)
T1 sequence (looked up): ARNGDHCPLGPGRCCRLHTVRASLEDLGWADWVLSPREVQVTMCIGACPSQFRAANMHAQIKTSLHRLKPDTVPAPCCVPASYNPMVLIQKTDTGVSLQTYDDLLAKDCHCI

T2: GDF1(R&D，6937-GD-010) (UniProt P27539 254-372)
T2 sequence (looked up): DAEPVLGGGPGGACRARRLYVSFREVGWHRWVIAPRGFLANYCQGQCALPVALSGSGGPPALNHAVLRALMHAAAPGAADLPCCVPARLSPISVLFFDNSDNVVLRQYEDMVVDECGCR

T3: GDF3(R&D，5754-G3-010) (UniProt Q9NR23 251-364)
T3 sequence (looked up): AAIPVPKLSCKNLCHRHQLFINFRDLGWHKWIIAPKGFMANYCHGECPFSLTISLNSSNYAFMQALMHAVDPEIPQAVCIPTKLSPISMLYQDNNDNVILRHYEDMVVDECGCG


Experiments:
[1] = biological target: T1, GDF15-HIS(百普赛斯，CAT#:GD5-H5149); experiment: cell-based or functional assay
GDF1(R&D，6937-GD-010) = biological target: T2, GDF1(R&D，6937-GD-010); experiment: ELISA, GDF1 coated at 1 μg/ml, HRP-anti-human IgG
GDF3(R&D，5754-G3-010) = biological target: T3, GDF3(R&D，5754-G3-010); experiment: ELISA, GDF3 coated at 1 μg/ml, HRP-anti-human IgG

Bottom (fold luciferase activity), HEK293 SRE-LUC2-cRET-GFRAL reporter cells [1]	IC50(μg/ml), luciferase in HEK293 SRE-LUC2-cRET-GFRAL reporter cells stimulated with 5 ng/ml GDF15-His [1]	binding result (GDF1(R&D，6937-GD-010))	binding result (GDF3(R&D，5754-G3-010))	Binder
1.1	0.0225 µg/mL	no binding (tested: 4μg/ml)	no binding (tested: 4μg/ml)	53E5(hz) (antibody, human IgG1, kappa, V domains shown, also called 人源化抗体53E5(hz); 53E5人源化) VH: QVQLQESGPGLVKPSETLSLTCTFSGFSLSTSGMGVGWIRQPPGKGLEWLAHILWDDVKRYNPALKSRLTISKDSSKSQISLKLSSVTAADTAVYYCVQMAWDWFAYWGQGTTVTVSS VL: DIQMTQSPSSLSASVGDRVTITCKASQNVDTNVAWYQQKPGQSPKALIYSASYRSSGVPSRFSGSGSGTDFTLTISSLQPEDFATYYCQQYHSYPTFGQGTRLEIKR
1.03	0.0447 µg/mL			AV380-hIgG1 (antibody) heavy: not shown light: DIQMTQSPASLSASVGETVTITCRTSENLHNYLAWYQQKQGKSPQLLVYDAKTLADGVPSRFSGSGSGTQYSLKINSLQPEDFGSYYCQHFWSSPYTFGGGTKLEIKRTVAAPSVFIFPPSDEQLKSGTASVVCLLNNFYPREAKVQWKVDNALQSGNSQESVTEQDSKDSTYSLSSTLTLSKADYEKHKVYACEVTHQGLSSPVTKSFNRGEC
